As a reminder, the Km is the substrate concentration at which the rate is half of its maximum.

Compound in this data set: NC(CCC(=O)NC1CSSCC(NC(=O)CCC(N)C(=O)O)C(=O)NCC(=O)NCCCNCCCCNC(=O)CNC1=O)C(=O)O
Kind of data set: Inhibitory activity against recombinant Trypanothione reductase from Trypanosoma cruzi.

B1: Trypanothione reductase (Trypanosoma cruzi), P28593 (protein)
chain: MMSKIFDLVVIGAGSGGLEAAWNAATLYKKRVAVIDVQMVHGPPFFSALGGTCVNVGCVPKKLMVTGAQYMEHLRESAGFGWEFDRTTLRAEWKKLIAVKDEAVLNINKSYEEMFRDTEGLEFFLGWGSLESKNVVNVRESADPASAVKERLETENILLASGSWPHMPNIPGIEHCISSNEAFYLPEPPRRVLTVGGGFISVEFAGIFNAYKPKDGQVTLCYRGEMILRGFDHTLREELTKQLTANGIQILTKENPAKVELNADGSKSVTFESGKKMDFDLVMMAIGRSPRTKDLQLQNAGVMIKNGGVQVDEYSRTNVSNIYAIGDVTNRVMLTPVAINEAAALVDTVFGTNPRKTDHTRVASAVFSIPPIGTCGLIEEVASKRYEVVAVYLSSFTPLMHNISGSKYKTFVAKIITNHSDGTVLGVHLLGDNAPEIIQGVGICLKLNAKISDFYNTIGVHPTSAEELCSMRTPSYYYVKGEKMEKPSEASL
Take B1: the Km came to 50 µM.

The values above are taken from ChEMBL document CHEMBL1128006, “Solid phase synthesis of trypanothione disulfide” (Bioorg Med Chem Lett, 1994).
